What all share (test): biochemical
Common to all, as to type: biochemical

Experiment [1] has as its target T1, 266 human kinases (Homo sapiens, UniProt O15146).
T1 sequence (O15146 24-869): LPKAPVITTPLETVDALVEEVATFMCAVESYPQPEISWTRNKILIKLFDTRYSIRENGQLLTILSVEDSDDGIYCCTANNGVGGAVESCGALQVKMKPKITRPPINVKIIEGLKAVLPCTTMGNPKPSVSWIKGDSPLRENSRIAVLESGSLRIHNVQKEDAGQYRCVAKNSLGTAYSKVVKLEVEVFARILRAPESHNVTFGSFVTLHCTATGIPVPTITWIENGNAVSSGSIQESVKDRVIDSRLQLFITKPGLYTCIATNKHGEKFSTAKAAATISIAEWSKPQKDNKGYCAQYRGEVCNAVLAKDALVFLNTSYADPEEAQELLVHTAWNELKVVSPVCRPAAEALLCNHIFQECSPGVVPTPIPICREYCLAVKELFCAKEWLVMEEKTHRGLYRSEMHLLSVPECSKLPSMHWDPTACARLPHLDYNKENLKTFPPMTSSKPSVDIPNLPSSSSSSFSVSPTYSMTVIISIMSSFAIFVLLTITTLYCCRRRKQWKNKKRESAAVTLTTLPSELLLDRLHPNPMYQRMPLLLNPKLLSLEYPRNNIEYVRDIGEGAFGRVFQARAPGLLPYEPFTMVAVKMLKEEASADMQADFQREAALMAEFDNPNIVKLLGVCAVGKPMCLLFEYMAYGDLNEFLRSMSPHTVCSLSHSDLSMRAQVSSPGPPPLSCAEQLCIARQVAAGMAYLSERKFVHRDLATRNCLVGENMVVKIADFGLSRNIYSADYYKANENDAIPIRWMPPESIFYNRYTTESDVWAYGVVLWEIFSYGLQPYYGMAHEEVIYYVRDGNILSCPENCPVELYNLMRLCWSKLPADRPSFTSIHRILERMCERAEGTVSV
As to conditions: MuSK(h); 100 μM. The method in brief:
(§1)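 Radiometric filter-binding format: a positively charged substrate takes up radiolabelled phosphate from ATP unless the kinase is inhibited, then is captured on a negatively charged filter membrane. Counts from scintillation are expressed relative to a 100% activity control.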

The target in experiment [2] is 266 human kinases (Homo sapiens, UniProt P00519, Y253F). The note with it: Abl(Y253F)(h); 100 μM. The method in brief: as §1
Experiment [3] has as its target 266 human kinases (Homo sapiens, UniProt P04049). As to conditions: c-RAF(h); 100 μM. In outline:
as §1

In experiment [4] the target is 266 human kinases (Homo sapiens, UniProt P45984). The note with it: JNK2α2(h); 100 μM. The method in brief: as §1
Experiment [5] addresses 266 human kinases (Homo sapiens, UniProt P49840). As to conditions: GSK3α(h); 100 μM. In outline:
as §1

The target in experiment [6] is 266 human kinases (Homo sapiens, UniProt P53355). As to conditions: DAPK1(h); 100 μM. In outline: as §1
Experiment [7] has as its target 266 human kinases (Homo sapiens, UniProt P53667). As to conditions: LIMK1(h); 100 μM. The method in brief: as §1
Experiment [8] deals with 266 human kinases (Homo sapiens, UniProt P57059). As to conditions: SIK(h); 100 μM. In outline: as §1
Experiment [9] addresses 266 human kinases (Homo sapiens, UniProt Q02750). As to conditions: MEK1(h); 100 μM. The method in brief:
as §1

For experiment [10], the target named is 266 human kinases (Homo sapiens, UniProt Q13464). The note with it: ROCK-I(h); 100 μM. In outline:
as §1

Experiment [11] has as its target 266 human kinases (Homo sapiens, UniProt Q16832). The note with it: DDR2(h); 100 μM. In outline:
as §1

The target in experiment [12] is 266 human kinases (Homo sapiens, UniProt Q86Y07). The note with it: VRK2(h); 100 μM. In outline: as §1
Chain of 266 human kinases (Homo sapiens, UniProt Q86Y07) (Q86Y07 whole entry): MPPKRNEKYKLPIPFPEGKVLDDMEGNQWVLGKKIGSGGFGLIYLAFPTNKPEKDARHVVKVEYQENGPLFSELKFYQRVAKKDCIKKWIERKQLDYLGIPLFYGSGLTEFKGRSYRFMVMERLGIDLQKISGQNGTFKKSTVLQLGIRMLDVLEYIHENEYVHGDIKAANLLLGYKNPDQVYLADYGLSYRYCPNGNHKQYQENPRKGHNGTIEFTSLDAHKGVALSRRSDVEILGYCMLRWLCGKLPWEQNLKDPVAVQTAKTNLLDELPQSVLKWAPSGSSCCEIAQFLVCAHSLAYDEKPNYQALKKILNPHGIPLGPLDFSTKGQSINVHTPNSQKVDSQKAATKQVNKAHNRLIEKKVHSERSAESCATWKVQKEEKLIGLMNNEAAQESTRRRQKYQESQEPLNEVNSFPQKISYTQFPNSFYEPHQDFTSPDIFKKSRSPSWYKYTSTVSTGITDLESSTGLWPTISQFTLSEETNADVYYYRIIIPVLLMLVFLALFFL
Experiment [13] deals with 266 human kinases (Homo sapiens, UniProt Q9NYY3). The note with it: Snk(h); 100 μM. In outline: as §1
Chain of 266 human kinases (Homo sapiens, UniProt Q9NYY3) (Q9NYY3 whole entry): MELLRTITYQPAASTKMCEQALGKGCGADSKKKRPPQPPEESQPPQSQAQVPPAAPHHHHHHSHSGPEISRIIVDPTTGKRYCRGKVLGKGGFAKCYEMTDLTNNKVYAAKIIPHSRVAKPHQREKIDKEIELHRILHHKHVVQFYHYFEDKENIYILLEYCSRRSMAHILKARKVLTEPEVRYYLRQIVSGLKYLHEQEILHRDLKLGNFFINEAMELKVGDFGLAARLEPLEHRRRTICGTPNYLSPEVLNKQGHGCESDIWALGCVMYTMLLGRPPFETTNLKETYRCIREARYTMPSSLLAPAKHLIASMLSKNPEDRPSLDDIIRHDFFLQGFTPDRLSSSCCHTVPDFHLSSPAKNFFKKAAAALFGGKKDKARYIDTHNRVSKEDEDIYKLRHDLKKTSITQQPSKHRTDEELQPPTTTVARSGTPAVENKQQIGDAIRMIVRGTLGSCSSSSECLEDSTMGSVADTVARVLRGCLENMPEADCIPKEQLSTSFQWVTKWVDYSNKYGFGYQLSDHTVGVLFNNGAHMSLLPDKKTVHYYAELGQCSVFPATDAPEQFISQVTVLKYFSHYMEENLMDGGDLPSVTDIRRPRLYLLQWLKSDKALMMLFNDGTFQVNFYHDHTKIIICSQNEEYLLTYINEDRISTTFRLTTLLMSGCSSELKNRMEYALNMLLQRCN
The target in experiment [14] is T2, 266 human kinases (Homo sapiens, UniProt Q9UBE8).
T2 sequence (Q9UBE8 1-527): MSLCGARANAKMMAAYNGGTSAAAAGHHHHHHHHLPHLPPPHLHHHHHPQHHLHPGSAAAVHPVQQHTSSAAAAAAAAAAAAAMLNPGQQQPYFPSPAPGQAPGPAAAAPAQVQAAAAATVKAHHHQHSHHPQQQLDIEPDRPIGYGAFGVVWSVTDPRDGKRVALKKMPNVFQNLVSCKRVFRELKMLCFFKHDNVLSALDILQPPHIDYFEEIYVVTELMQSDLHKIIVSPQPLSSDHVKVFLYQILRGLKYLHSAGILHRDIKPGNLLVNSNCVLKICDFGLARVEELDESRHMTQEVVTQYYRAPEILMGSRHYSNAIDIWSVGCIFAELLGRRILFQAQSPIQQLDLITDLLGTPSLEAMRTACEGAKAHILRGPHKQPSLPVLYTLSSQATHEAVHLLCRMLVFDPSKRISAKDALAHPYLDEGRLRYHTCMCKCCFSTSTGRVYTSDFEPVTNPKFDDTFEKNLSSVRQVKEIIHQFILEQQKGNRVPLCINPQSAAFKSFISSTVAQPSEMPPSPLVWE
The note with it: NLK(h); 100 μM. The method in brief:
as §1

The target in experiment [15] is 266 human kinases (Homo sapiens, UniProt Q9Y243). As to conditions: PKBγ(h); 100 μM. In outline: as §1
Chain of 266 human kinases (Homo sapiens, UniProt Q9Y243) (Q9Y243 whole entry): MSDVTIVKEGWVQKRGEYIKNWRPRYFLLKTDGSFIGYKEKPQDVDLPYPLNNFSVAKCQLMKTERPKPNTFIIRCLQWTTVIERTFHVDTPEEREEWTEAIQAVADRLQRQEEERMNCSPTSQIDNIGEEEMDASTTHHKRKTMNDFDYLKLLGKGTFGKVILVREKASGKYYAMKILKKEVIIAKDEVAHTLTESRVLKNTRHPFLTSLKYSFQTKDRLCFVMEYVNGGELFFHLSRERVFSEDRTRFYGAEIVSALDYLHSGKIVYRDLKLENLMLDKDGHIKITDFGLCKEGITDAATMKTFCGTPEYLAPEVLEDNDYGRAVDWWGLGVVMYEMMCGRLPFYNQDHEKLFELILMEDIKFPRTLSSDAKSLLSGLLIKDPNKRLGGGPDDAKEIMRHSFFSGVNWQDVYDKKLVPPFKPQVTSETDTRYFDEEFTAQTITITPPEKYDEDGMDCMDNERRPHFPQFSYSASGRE
The target in experiment [16] is 266 human kinases (Homo sapiens, UniProt Q9Y5S2). The note with it: MRCKβ(h); 100 μM. In outline: as §1
Chain of 266 human kinases (Homo sapiens, UniProt Q9Y5S2) (Q9Y5S2 whole entry): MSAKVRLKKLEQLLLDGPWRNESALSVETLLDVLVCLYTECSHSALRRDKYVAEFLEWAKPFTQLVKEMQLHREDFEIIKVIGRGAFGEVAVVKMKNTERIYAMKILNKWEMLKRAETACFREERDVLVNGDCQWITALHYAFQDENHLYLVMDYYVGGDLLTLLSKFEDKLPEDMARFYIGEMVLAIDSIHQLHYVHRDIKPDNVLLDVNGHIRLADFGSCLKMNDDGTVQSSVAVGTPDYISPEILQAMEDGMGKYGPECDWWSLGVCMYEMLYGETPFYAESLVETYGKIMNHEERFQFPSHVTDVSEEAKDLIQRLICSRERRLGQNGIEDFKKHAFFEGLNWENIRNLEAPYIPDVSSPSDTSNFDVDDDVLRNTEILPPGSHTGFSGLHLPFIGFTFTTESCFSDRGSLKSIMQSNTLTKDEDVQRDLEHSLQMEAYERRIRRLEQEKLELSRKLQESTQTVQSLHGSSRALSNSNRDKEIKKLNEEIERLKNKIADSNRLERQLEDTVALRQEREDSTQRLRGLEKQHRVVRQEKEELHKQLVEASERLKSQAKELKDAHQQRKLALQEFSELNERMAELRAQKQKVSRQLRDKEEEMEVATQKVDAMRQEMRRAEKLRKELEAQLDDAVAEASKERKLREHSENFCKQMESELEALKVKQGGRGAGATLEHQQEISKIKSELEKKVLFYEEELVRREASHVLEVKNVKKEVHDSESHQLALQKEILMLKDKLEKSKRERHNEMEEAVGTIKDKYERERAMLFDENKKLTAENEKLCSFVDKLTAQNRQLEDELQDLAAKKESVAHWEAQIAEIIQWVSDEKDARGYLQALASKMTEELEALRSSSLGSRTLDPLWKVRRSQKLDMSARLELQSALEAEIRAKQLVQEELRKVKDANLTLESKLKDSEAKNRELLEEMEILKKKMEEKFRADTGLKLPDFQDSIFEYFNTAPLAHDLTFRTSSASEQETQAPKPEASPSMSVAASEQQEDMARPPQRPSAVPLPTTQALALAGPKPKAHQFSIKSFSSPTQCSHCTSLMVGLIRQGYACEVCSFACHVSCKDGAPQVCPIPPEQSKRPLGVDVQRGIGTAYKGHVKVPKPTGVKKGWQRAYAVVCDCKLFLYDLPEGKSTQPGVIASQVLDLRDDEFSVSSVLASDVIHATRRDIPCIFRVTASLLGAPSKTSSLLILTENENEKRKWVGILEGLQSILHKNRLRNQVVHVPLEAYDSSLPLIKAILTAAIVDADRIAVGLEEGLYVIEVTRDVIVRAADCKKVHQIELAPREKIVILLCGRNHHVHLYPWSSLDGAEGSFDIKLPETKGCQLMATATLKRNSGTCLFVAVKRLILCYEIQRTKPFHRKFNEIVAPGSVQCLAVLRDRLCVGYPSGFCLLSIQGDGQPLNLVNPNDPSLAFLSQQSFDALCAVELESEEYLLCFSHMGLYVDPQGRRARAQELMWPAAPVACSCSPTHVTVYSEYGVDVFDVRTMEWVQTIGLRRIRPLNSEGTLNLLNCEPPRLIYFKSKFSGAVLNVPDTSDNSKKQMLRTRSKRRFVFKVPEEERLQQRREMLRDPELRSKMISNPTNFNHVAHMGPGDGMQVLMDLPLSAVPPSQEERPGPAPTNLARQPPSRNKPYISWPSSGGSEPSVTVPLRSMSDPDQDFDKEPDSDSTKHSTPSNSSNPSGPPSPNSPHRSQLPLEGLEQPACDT
Experiment [17] concerns the target 266 human kinases (Homo sapiens, UniProt O75914). The note with it: PAK3(h); 100 μM. The method in brief: as §1
The target in experiment [18] is 266 human kinases (Homo sapiens, UniProt P11362, V561M). The note with it: FGFR1(V561M)(h); 100 μM. The method in brief: as §1
The target of experiment [19] is 266 human kinases (Homo sapiens, UniProt P19784). As to conditions: CK2α2(h); 100 μM. The method in brief:
as §1

Chain of 266 human kinases (Homo sapiens, UniProt O75914) (O75914 whole entry): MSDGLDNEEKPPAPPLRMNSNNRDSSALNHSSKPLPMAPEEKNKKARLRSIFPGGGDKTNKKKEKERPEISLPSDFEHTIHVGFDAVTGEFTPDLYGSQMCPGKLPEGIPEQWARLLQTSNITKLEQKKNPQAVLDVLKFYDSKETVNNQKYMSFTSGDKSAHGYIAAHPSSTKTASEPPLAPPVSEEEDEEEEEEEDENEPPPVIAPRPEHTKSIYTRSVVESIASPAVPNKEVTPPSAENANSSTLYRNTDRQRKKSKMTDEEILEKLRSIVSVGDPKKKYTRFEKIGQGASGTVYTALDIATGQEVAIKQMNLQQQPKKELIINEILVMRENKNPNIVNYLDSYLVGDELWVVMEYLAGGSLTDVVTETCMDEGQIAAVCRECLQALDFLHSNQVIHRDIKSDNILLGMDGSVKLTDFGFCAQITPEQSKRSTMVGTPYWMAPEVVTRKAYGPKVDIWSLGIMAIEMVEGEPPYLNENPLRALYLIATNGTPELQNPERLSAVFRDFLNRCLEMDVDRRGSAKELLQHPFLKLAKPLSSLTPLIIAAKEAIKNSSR
Chain of 266 human kinases (Homo sapiens, UniProt Q16832) (Q16832 22-855): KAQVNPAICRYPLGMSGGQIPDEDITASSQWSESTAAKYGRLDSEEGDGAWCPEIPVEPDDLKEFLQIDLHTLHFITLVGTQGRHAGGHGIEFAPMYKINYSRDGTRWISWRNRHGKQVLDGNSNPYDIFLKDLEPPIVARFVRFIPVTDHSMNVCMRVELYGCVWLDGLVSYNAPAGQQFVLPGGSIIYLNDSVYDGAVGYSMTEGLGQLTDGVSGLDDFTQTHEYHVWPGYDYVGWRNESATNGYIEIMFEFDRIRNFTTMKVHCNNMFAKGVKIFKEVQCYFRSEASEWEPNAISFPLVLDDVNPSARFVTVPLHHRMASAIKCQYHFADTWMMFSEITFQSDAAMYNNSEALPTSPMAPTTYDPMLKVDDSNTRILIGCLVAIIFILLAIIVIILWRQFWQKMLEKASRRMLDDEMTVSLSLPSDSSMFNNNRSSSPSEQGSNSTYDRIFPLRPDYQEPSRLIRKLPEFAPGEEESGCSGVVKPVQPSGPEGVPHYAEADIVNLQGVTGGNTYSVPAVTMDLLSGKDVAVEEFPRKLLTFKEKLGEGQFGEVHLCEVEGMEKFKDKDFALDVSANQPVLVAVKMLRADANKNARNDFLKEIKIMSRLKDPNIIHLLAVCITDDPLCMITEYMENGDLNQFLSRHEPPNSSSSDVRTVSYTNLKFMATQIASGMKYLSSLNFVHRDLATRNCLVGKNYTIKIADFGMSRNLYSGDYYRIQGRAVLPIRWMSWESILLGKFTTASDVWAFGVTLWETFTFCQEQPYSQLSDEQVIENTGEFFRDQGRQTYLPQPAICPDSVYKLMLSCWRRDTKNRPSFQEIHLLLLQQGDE

Regarding “HRRIKAWLKKIKALARQLGVAA (mammal) [MMI-0500]”, the “% activity” value is 27% in the experiment with 266 human kinases [1]; 29% with 266 human kinases [2]; 19% with 266 human kinases [3]; 81% in the experiment with 266 human kinases [4]; 175% with 266 human kinases [5]; 0% with 266 human kinases [6]. Moreover, the “% activity” value with 266 human kinases [7] came to 87%; with 266 human kinases [8], 40%; with 266 human kinases [9], 21%; with 266 human kinases [10], 17%; with 266 human kinases [11] it was 79%; with 266 human kinases [12] it was 169%. The “% activity” value with 266 human kinases [13] was 122%; in the experiment with 266 human kinases [14], 19%; with 266 human kinases [15], 20%; with 266 human kinases [16], −10%.
In the case of “YARAAARQARAKALNRQLGVA (mammal) [MMI-0200]”, the results for the “% activity” value in the experiment with 266 human kinases [17], in the experiment with 266 human kinases [18] and with 266 human kinases [19] were 50%, 72% and 88%, respectively.

These data come from patent publication US20140072613A1, “Compositions and Methods for Treating Cutaneous Scarring” (priority 2012, published 2014).
